Assays:
human integrin β8 = target: T1, human integrin β8 (human, UniProt P26012 43-769); assay: antibody binding, cell surface staining, flow cytometry
T1 construct: whole, on cells; also called ITGB8; H ITGB8
Text: (§1) Chimeric integrin β8 constructs, which swapped mouse sequences into human ITGB8 were used to localize the 37E1B5 binding epitope. The epitope was localized by antibody binding, cell surface staining, and detection by flow cytometry. The 37E1B5 epitope is encompassed within amino acids 74-180 of human integrin β8. 37E1B5 binds to human, but not to mouse β8. Therefore, at least one of the 9 non-conservative amino acid differences or 7 minor amino acid differences (indicated by + in the middle line of the sequence) are included in the binding epitope. These domains reflect portions of what are known in the field as the Psi, hybrid and the alpha1 helix of the Beta-I domain of the integrin β8 subunit, and are found on the surface of the molecule.

human integrin αvβ8 = human integrin αvβ8 (human, UniProt P06756 31-1048; P26012 43-769); assay: cell staining and flow cytometry on primary human articular chondrocytes
Sequence of human integrin αvβ8 (P06756 31-1048, chain 1 of 2): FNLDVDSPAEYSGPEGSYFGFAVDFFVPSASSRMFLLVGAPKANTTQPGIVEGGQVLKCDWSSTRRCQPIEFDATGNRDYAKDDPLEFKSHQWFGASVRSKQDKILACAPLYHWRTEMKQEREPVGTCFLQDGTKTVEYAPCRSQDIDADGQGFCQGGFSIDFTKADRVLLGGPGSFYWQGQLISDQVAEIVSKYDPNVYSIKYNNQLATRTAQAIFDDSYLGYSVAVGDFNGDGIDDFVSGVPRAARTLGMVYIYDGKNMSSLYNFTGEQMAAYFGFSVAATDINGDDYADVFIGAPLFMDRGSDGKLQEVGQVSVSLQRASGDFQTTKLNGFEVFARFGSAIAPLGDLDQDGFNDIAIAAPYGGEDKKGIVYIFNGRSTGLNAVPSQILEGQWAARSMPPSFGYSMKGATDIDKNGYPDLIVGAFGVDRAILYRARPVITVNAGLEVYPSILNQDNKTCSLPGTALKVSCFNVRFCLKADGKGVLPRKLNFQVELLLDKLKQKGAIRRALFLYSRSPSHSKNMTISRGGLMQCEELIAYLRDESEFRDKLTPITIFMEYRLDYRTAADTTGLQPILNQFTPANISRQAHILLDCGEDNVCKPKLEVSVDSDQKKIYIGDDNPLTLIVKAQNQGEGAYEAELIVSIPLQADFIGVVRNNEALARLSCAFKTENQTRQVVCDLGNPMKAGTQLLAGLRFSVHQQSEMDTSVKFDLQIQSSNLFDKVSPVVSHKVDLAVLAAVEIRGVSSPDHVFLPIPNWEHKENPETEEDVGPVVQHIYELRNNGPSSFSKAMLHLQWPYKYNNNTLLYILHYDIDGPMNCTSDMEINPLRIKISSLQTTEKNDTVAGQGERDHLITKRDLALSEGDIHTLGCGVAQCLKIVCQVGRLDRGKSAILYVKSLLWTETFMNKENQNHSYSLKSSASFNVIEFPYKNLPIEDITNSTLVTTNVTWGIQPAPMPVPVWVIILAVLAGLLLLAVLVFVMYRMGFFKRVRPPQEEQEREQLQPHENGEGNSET
Sequence of human integrin αvβ8 (P26012 43-769, chain 2 of 2): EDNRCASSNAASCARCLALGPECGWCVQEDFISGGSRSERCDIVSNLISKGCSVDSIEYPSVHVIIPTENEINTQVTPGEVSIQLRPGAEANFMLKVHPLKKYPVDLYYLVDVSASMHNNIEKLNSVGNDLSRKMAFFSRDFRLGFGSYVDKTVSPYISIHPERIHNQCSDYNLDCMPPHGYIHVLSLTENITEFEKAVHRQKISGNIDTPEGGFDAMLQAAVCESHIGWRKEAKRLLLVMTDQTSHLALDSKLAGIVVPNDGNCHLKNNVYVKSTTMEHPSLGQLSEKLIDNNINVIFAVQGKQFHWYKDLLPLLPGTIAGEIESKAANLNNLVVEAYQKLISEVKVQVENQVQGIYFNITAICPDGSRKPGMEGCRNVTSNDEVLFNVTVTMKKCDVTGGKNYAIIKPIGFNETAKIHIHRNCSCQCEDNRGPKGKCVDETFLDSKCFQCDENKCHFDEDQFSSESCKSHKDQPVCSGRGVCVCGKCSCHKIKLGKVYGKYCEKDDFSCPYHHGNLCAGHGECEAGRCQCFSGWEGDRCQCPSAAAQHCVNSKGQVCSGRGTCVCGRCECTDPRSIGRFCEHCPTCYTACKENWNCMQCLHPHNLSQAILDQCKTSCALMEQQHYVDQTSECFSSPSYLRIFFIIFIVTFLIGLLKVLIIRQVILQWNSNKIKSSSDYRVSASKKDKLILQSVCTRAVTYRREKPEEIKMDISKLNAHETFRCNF
Protocol: Adult articular cartilage was harvested from the joint space of knee from a patient undergoing elective repair of a knee for chronic osteoarthritis. Primary chondrocytes were grown to 70% confluence and the integrin receptor expression determined by cell staining and flow cytometry. The antibodies used were anti-β8 (37E1B5), and anti-β6 (E7P6). […] Primary chondrocytes were co-cultured with TMLC TGF-β reporter cells (Annes et al. (2004) J. Cell Biol. 165:723) in a TGF-β bioassay in the presence or absence of anti-β8 (37E1B5) or neutralizing anti-β6. Anti-β8 produced a robust blockade of TGF-β activation while anti-β6 produced no such effect.

mouse integrin β8 = target: T2, mouse integrin β8 (mouse, UniProt Q0VBD0 22-767, limits assumed); assay: antibody binding, cell surface staining, flow cytometry (mouse/human chimeric β8 constructs)
T2 construct: also called itgb8; M itgb8
T2 sequence (looked up): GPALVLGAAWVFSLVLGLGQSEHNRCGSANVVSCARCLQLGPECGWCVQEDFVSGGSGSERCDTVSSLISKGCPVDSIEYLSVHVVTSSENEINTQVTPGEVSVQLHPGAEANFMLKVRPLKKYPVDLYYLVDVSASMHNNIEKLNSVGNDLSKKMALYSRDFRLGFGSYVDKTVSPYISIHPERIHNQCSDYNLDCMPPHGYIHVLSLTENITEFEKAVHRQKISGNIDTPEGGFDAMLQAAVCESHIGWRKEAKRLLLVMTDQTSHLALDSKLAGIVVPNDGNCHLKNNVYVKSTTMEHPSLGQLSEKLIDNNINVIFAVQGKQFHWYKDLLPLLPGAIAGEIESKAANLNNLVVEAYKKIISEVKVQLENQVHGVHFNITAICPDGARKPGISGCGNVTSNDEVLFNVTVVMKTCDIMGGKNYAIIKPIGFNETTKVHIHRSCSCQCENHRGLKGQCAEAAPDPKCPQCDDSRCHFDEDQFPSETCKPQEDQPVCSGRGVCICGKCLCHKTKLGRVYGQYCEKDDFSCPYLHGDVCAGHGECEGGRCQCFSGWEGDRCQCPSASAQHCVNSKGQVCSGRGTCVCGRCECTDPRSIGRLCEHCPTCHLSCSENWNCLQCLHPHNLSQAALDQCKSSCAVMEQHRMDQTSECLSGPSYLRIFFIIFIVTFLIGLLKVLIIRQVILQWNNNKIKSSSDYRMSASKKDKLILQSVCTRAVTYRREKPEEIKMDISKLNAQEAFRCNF
Text: as §1

T1 sequence (P26012 43-769): as the sequence (P26012 43-769, chain 2 of 2) above

B1: 37E1B5 (antibody, V domains shown)
VH: EVQLVESGGGLVQPGGSLNLSCAVSGFVFSRYWMSWVRQAPGKGLEWIGEINPDSSTINYTSSLKDKFIISRDNAKNTLYLQMNKVRSEDTALYYCACLITTEDYWGQGTSVTVSS
VL: QIVLTQSPSSMYASLGERVTIPCKASQDINSYLSWFQQKPGKSPKTLIYYANRLVDGVPSRFSGSGSGQDYSLTISSLEYEDMGIYYCLQYDEFPYTFGGGTKLEIK
notes: Three versions were made in CHO cells: mouse IgG1, mouse IgG2a and partially humanized IgG1; also called 37E1B5 antibody; anti-β8 (37E1B5)
B1: binds (human integrin β8); binds (human integrin αvβ8); no binding (mouse integrin β8).
